Measured values reported in patent publication US20250152742A1, “COMPOSITIONS AND METHODS FOR NEUROLOGICAL DISEASES” (Trames Bio, Inc., priority 2022, published 2025).
Positions count from the first letter of the chain named. In names and notes the source's numbering stands.

System: engineered chimeric receptor SEQ ID NO: 33 and its mutants (human α7-nAChR ligand binding domain / human GlyRα1 ion pore domain) in Lenti-X 293T cells
Assay: YFP fluorescence quenching anion reporter plate reader assay (percent quench, EC50)
Format: cell-based
Conditions: for YFP fluorescence quenching using CNL001 (percent quench): receptor named in row; for YFP fluorescence quenching using Facinicline, 30 nM fac: ligand Facinicline 30 nM; for YFP fluorescence quenching using Facinicline, 300 nM fac: ligand Facinicline 300 nM; for YFP fluorescence quenching using Facinicline, 30 uM fac: ligand Facinicline 30 uM; for YFP fluorescence quenching using TC-6987, 1 uM tc6987: ligand TC-6987 1 uM; for YFP fluorescence quenching using TC-6987, 10 uM tc6987: ligand TC-6987 10 uM; for YFP fluorescence quenching using TC-6987, 500 uM tc6987: ligand TC-6987 500 uM; for YFP fluorescence quenching using Varenicline, 3 nM var: ligand Varenicline 3 nM; for YFP fluorescence quenching using Varenicline, 30 nM var: ligand Varenicline 30 nM; for YFP fluorescence quenching using Varenicline, 300 nM var: ligand Varenicline 300 nM; for YFP fluorescence quenching using Varenicline, 500 nM var: ligand Varenicline 500 nM; for YFP fluorescence quenching using Varenicline, 1 uM var: ligand Varenicline 1 uM
Procedure, shortened: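 Lenti-X 293T cells co-expressing an anion-quenchable YFP were transiently transfected with receptor DNA, then ligand was added in NaI-substituted buffer (pH 7.2) after 30 min at 37 °C. Fluorescence was read about 2 min; percent quench = mean of last 10 s over 15 s pre-ligand baseline.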

[1] = 1 nM CNL001, first column so headed
[2] = 1 nM CNL001, second column so headed
[3] = 3 nM brd (TC-5619/Bradanicline)
[4] = 10 nM CNL001, first column so headed
[5] = 10 nM CNL001, second column so headed
[6] = 30 nM brd (TC-5619/Bradanicline)
[7] = 50 nM CNL001, first column so headed
[8] = 50 nM CNL001, second column so headed
[9] = 100 nM CNL001, first column so headed
[10] = 100 nM CNL001, second column so headed
[11] = 300 nM brd (TC-5619/Bradanicline)
[12] = 1 uM CNL001, first column so headed
[13] = 1 uM CNL001, second column so headed

B1: CODA409: engineered receptor: Y210W in SEQ ID NO: 33 (protein)
chain: MRCSPGGVWLALAASLLHVSLQGEFQRKLYKELVKNYNPLERPVANDSQPLTVYFSLSLLQIMDVDEKNQVLTTNIWLQMSWTDHYLQWNVSEYPGVKTVRFPDGQIWKPDILLYNSADERFDATFHTNVLVNSSGHCQYLPPGIFKSSCPMDLKNFPMDVQTCKLKFGSWSYGGWSLDLQMQEADISGYIPNGEWDLVGIPGKRSERFWECCKEPYPDVTFTVTMRRRMGYYLIQMYIPSLLIVILSWISFWINMDAAPARVGLGITTVLTMTTQSSGSRASLPKVSYVKAIDIWMAVCLLFVFSALLEYAAVNFVSRQHKELLRFRRKRRHHKSPMLNLFQEDEAGEGRFNFSAYGMGPACLQAKDGISVKGANNSNTTNPPPAPSKSPEEMRKLFIQRAKKIDKISRIGFPMAFLIFNMFYWIIYKIVRREDVHNQ
modifications: synthetic sequence of chimeric LGIC
YFP fluorescence quenching using CNL001 (percent quench) [1]: −8.914%
YFP fluorescence quenching using CNL001 (percent quench) [2]: −14.319%
YFP fluorescence quenching using TC-5619/Bradanicline (percent quench) (1 nM brd (TC-5619/Bradanicline)): −13.45%
YFP fluorescence quenching using TC-5619/Bradanicline (percent quench) [3]: −0.64%
YFP fluorescence quenching using CNL001 (percent quench) [4]: −1.444%
YFP fluorescence quenching using CNL001 (percent quench) [5]: 4.393%
YFP fluorescence quenching using TC-5619/Bradanicline (percent quench) (10 nM brd (TC-5619/Bradanicline)): 37.3%
YFP fluorescence quenching using TC-5619/Bradanicline (percent quench) [6]: 76.36%
YFP fluorescence quenching using CNL001 (percent quench) [7]: 11.897%
YFP fluorescence quenching using CNL001 (percent quench) [8]: 11.434%
YFP fluorescence quenching using ABT-126 (percent quench) (50 nM abt (ABT-126)): 8.23%
YFP fluorescence quenching using CNL001 (percent quench) [9]: 12.719%
YFP fluorescence quenching using CNL001 (percent quench) [10]: 16.053%
YFP fluorescence quenching (percent quench) (100 nM CNL002): −14.92%
YFP fluorescence quenching using ABT-126 (percent quench) (100 nM abt (ABT-126)): 55.53%
YFP fluorescence quenching using AZD-0328 (percent quench) (100 nM azd0328): −6.57%
YFP fluorescence quenching using TC-5619/Bradanicline (percent quench) (100 nM brd (TC-5619/Bradanicline)): 72.72%
YFP fluorescence quenching using ABT-126 (percent quench) (300 nM abt (ABT-126)): 74.82%
YFP fluorescence quenching using AZD-0328 (percent quench) (300 nM azd0328): −4.84%
YFP fluorescence quenching using TC-5619/Bradanicline (percent quench) [11]: 75.47%
YFP fluorescence quenching using ABT-126 (percent quench) (500 nM abt (ABT-126)): 77.39%
YFP fluorescence quenching using CNL001 (percent quench) [12]: 14.077%
YFP fluorescence quenching using CNL001 (percent quench) [13]: 15.495%
YFP fluorescence quenching (percent quench) (1 uM CNL002): −0.85%
YFP fluorescence quenching using ABT-126 (percent quench) (1 uM abt (ABT-126)): 77.77%
YFP fluorescence quenching using TC-5619/Bradanicline (percent quench) (1 uM brd (TC-5619/Bradanicline)): 78.73%
YFP fluorescence quenching using ABT-126 (percent quench) (3 uM abt (ABT-126)): 69.33%
YFP fluorescence quenching using ABT-126 (percent quench) (10 uM abt (ABT-126)): 74.79%
YFP fluorescence quenching (percent quench) (10 uM ach (acetylcholine)): −5.43%
YFP fluorescence quenching (percent quench) (30 uM CNL002): 29.62%
YFP fluorescence quenching using ABT-126 (percent quench) (30 uM abt (ABT-126)): 75.61%
YFP fluorescence quenching using AZD-0328 (percent quench) (30 uM azd0328): 81.64%
YFP fluorescence quenching using ABT-126 (percent quench) (50 uM abt (ABT-126)): 75.72%
YFP fluorescence quenching using ABT-126 (percent quench) (100 uM abt (ABT-126)): 78.52%
YFP fluorescence quenching (percent quench) (100 uM ach (acetylcholine)): 17.14%
YFP fluorescence quenching (percent quench) (1 mM ach (acetylcholine)): 78.84%
YFP fluorescence quenching (percent quench) (3 mM ach (acetylcholine)): 78.55%
YFP fluorescence quenching using Facinicline, 30 nM fac: −10.93
YFP fluorescence quenching using Facinicline, 300 nM fac: −5.82
YFP fluorescence quenching using Facinicline, 10 uM fac (ligand Facinicline 10 uM): 60.97
YFP fluorescence quenching using Facinicline, 30 uM fac: 57.77
YFP fluorescence quenching using TC-6987, 1 uM tc6987: 62.82
YFP fluorescence quenching using TC-6987, 10 uM tc6987: 78.66
YFP fluorescence quenching using TC-6987, 500 uM tc6987: 70.35
YFP fluorescence quenching using Varenicline, 3 nM var (first column): 7.776
YFP fluorescence quenching using Varenicline, 3 nM var (second column): −2.964
YFP fluorescence quenching using Varenicline, 30 nM var (first column): −5.568
YFP fluorescence quenching using Varenicline, 30 nM var (second column): 3.024
YFP fluorescence quenching using Varenicline, 300 nM var (first column): 2.815
YFP fluorescence quenching using Varenicline, 300 nM var (second column): 3.06
YFP fluorescence quenching using Varenicline, 500 nM var (first column): 1.766
YFP fluorescence quenching using Varenicline, 500 nM var (second column): 2.819
YFP fluorescence quenching using Varenicline, 1 uM var (first column): 1.844
YFP fluorescence quenching using Varenicline, 1 uM var (second column): −4.059

B2: CODA407: engineered receptor: Y210F in SEQ ID NO: 33 (protein)
chain: B1 chain with W210F
modifications: synthetic sequence of chimeric LGIC
YFP fluorescence quenching using CNL001 (percent quench) [1]: −10.845%
YFP fluorescence quenching using CNL001 (percent quench) [2]: −2.629%
YFP fluorescence quenching using TC-5619/Bradanicline (percent quench) [3]: −0.53%
YFP fluorescence quenching using CNL001 (percent quench) [4]: 4.66%
YFP fluorescence quenching using CNL001 (percent quench) [5]: 12.246%
YFP fluorescence quenching using TC-5619/Bradanicline (percent quench) [6]: 8.71%
YFP fluorescence quenching using CNL001 (percent quench) [7]: 29.307%
YFP fluorescence quenching using CNL001 (percent quench) [8]: 41.78%
YFP fluorescence quenching using ABT-126 (percent quench) (50 nM abt (ABT-126)): −13.07%
YFP fluorescence quenching using CNL001 (percent quench) [9]: 50.654%
YFP fluorescence quenching using CNL001 (percent quench) [10]: 62.054%
YFP fluorescence quenching (percent quench) (100 nM CNL002): −12.47%
YFP fluorescence quenching using ABT-126 (percent quench) (100 nM abt (ABT-126)): 0.1%
YFP fluorescence quenching using AZD-0328 (percent quench) (100 nM azd0328): 0.85%
YFP fluorescence quenching using ABT-126 (percent quench) (300 nM abt (ABT-126)): 5.97%
YFP fluorescence quenching using AZD-0328 (percent quench) (300 nM azd0328): 1.25%
YFP fluorescence quenching using TC-5619/Bradanicline (percent quench) [11]: 76.26%
YFP fluorescence quenching using CNL001 (percent quench) [12]: 81.742%
YFP fluorescence quenching using CNL001 (percent quench) [13]: 81.304%
YFP fluorescence quenching (percent quench) (1 uM CNL002): −3.93%
YFP fluorescence quenching using ABT-126 (percent quench) (1 uM abt (ABT-126)): 50.23%
YFP fluorescence quenching (percent quench) (10 uM ach (acetylcholine)): −3.75%
YFP fluorescence quenching (percent quench) (30 uM CNL002): 80.97%
YFP fluorescence quenching using AZD-0328 (percent quench) (30 uM azd0328): 82.08%
YFP fluorescence quenching (percent quench) (100 uM ach (acetylcholine)): −1.6%
YFP fluorescence quenching (percent quench) (1 mM ach (acetylcholine)): 71.65%
YFP fluorescence quenching (percent quench) (3 mM ach (acetylcholine)): 79.09%
YFP fluorescence quenching using Facinicline, 30 nM fac: −21.94
YFP fluorescence quenching using Facinicline, 300 nM fac: −22.46
YFP fluorescence quenching using Facinicline, 30 uM fac: 82.63
YFP fluorescence quenching using TC-6987, 1 uM tc6987: −15.22
YFP fluorescence quenching using TC-6987, 10 uM tc6987: −19.89
YFP fluorescence quenching using TC-6987, 500 uM tc6987: −33.32
YFP fluorescence quenching using Varenicline, 3 nM var (first column): 2.441
YFP fluorescence quenching using Varenicline, 3 nM var (second column): 7.326
YFP fluorescence quenching using Varenicline, 30 nM var (first column): 1.275
YFP fluorescence quenching using Varenicline, 30 nM var (second column): 12.96
YFP fluorescence quenching using Varenicline, 300 nM var (first column): 13.119
YFP fluorescence quenching using Varenicline, 300 nM var (second column): 2.355
YFP fluorescence quenching using Varenicline, 500 nM var (first column): 11.539
YFP fluorescence quenching using Varenicline, 500 nM var (second column): 6.571
YFP fluorescence quenching using Varenicline, 1 uM var (first column): 8.397
YFP fluorescence quenching using Varenicline, 1 uM var (second column): 7.309
